We go through 60 molecules from patent US20160279215A1, “NOVEL PEPTIDES AND COMBINATION OF PEPTIDES FOR USE IN IMMUNOTHERAPY AGAINST VARIOUS TUMORS” (immatics biotechnologies GmbH, priority 2015, published 2016).

One test deals with T1, HLA-A*02:01 (Homo sapiens, UniProt P04439, D140Y/D185E/D98H/E176V/E277Q/G131W/G231S/I119V/I121R/I166T/I218V/L300P/L318F/N151K/N90K/P208A/P217A/Q86G/Q94H/R138H/R169H/T345S).
T1 construct: made in house
The test can be described thus: MHC binding assay: UV-ligand exchange with β2m ELISA (peptide exchange yield). The following applies: binding to HLA-A*02:01 evaluated by peptide exchange yield (UV-ligand exchange, β2m ELISA). In short, it runs like this:
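Exchange yield, UV-ligand exchange: 100-fold diluted samples on streptavidin plates, 1 h at 37 °C; HRP anti-β2m 1 h at 37 °C; TMB read at 450 nm.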
A general note: ELISA stands for enzyme-linked immunosorbent assay.
For the molecule “238 (HLQEKLQSL; listed as Homo sapiens) [compound 238]”, the Peptide exchange result is recorded as “++ (≧20% = ++)”.
Regarding “239 (VIIKGLEEITV; listed as Homo sapiens) [compound 239]”, the Peptide exchange entry is “+++ (≧50 = +++)”.
Still for that read-out and setting: the value for “241 (KQFEGTVEI; listed as Homo sapiens) [compound 241]” was “+++ (≧50 = +++)”; that for “243 (GLAEFQENV; listed as Homo sapiens) [compound 243]” was “++ (≧20% = ++)”.
For the molecule “244 (NVAEIVIHI; listed as Homo sapiens) [compound 244]”, the Peptide exchange entry was “+++ (≧50 = +++)”.
Consider “245 (ALLEEEEGV; listed as Homo sapiens) [compound 245]”, for which the Peptide exchange entry is reported as “++ (≧20% = ++)”.
Turning to “247 (NLLIDDKGTIKL; listed as Homo sapiens) [compound 247]”, the Peptide exchange result was “++ (≧20% = ++)”.
Take “249 (YLYQILQGI; listed as Homo sapiens) [compound 249]”: the Peptide exchange entry is “+++ (≧50 = +++)”.
Still for that read-out and setting: the value for “250 (LMQDSRLYL; listed as Homo sapiens) [compound 250]” was “+++ (≧50 = +++)”; that for “252 (SLMEKNQSL; listed as Homo sapiens) [compound 252]” was “++ (≧20% = ++)”.
As for “256 (FLNDIFERI; listed as Homo sapiens) [compound 256]”, the Peptide exchange result is given as “+++ (≧50 = +++)”.
For “258 (QLVQRVASV; listed as Homo sapiens) [compound 258]”, the Peptide exchange result is given as “++ (≧20% = ++)”.
On the same count and under the same terms, the value for “259 (GPGIFPPPPPQP; listed as Homo sapiens) [compound 259]” was “+ (≧10% = +)”.
Same read-out and setting: the value for “262 (LLLEAVWHL; listed as Homo sapiens) [compound 262]” was “+++ (≧50 = +++)”.
As to “265 (FLLDKPQDLSI; listed as Homo sapiens) [compound 265]”, the Peptide exchange entry is recorded as “+++ (≧50 = +++)”.
For “266 (FLLDKPQDL; listed as Homo sapiens) [compound 266]”, the Peptide exchange result is “++ (≧20% = ++)”.
For the molecule “268 (SLDKDIVAL; listed as Homo sapiens) [compound 268]”, the Peptide exchange result is recorded as “++ (≧20% = ++)”.
“269 (GLLDCPIFL; listed as Homo sapiens) [compound 269]”: the Peptide exchange entry is reported as “++++ (≧75% = ++++)”.
In the case of “270 (TLLTFFHEL; listed as Homo sapiens) [compound 270]”, the Peptide exchange result is given as “+++ (≧50 = +++)”.
Same read-out and setting: the value for “271 (VLIEYNFSI; listed as Homo sapiens) [compound 271]” was “+++ (≧50 = +++)”; that for “272 (FVMEGEPPKL; listed as Homo sapiens) [compound 272]” was “++ (≧20% = ++)”.
Same read-out and setting: for “273 (SLNKQIETV; listed as Homo sapiens) [compound 273]” the value was “++ (≧20% = ++)”; for “274 (TLYNPERTITV; listed as Homo sapiens) [compound 274]”, “+++ (≧50 = +++)”.
As to “276 (RMPTVLQCV; listed as Homo sapiens) [compound 276]”, the Peptide exchange entry is “+++ (≧50 = +++)”.
For “277 (KLQEELNKV; listed as Homo sapiens) [compound 277]”, the Peptide exchange result was “+++ (≧50 = +++)”.
For “278 (VLEDKVLSV; listed as Homo sapiens) [compound 278]”, the Peptide exchange entry is given as “+++ (≧50 = +++)”.
Take “279 (VLMDEGAVLTL; listed as Homo sapiens) [compound 279]”: the Peptide exchange entry was “++ (≧20% = ++)”.
Regarding “280 (HLWGHALFL; listed as Homo sapiens) [compound 280]”, the Peptide exchange entry is reported as “+++ (≧50 = +++)”.
With “281 (LLLESDPKVYSL; listed as Homo sapiens) [compound 281]”, the Peptide exchange entry is on record as “++ (≧20% = ++)”.
As to “282 (SLYALHVKA; listed as Homo sapiens) [compound 282]”, the Peptide exchange entry was “++ (≧20% = ++)”.
Turning to “283 (ALSELLQQV; listed as Homo sapiens) [compound 283]”, the Peptide exchange result is “+++ (≧50 = +++)”.
As for “284 (KLMDPGSLPPL; listed as Homo sapiens) [compound 284]”, the Peptide exchange entry is “++ (≧20% = ++)”.
As for “285 (MLLDTVQKV; listed as Homo sapiens) [compound 285]”, the Peptide exchange entry is “+++ (≧50 = +++)”.
Take “286 (FLTEMVHFI; listed as Homo sapiens) [compound 286]”: the Peptide exchange result was “+++ (≧50 = +++)”.

Another test addresses T2, HLA-A*02:01 (human).
T2 construct: MHC monomers captured on streptavidin plates; the UV-sensitive peptide is cleaved and exchanged with the test peptide; also called peptide-receptive MHC molecules; MHC class I
Kind of test: UV ligand-exchange ELISA (anti-b2m); +++ = exchange yield >=50.
Settings: not given
The source says: Candidate peptides for T cell based therapies according to the present invention were further tested for their MHC binding capacity (affinity). The individual peptide-MHC complexes were produced by UV-ligand exchange, where a UV-sensitive peptide is cleaved upon UV-irradiation, and exchanged with the peptide of interest as analyzed. Only peptide candidates that can effectively bind and stabilize the peptide-receptive MHC molecules prevent dissociation of the MHC complexes. To determine the yield of the exchange reaction, an ELISA was performed based on the detection of the light chain (β2m) of stabilized MHC complexes. The assay was performed as generally described in Rodenko et al. (Rodenko et al., 2006).
96 well MAXISorp plates (NUNC) were coated over night with 2 ug/ml streptavidin in PBS at room temperature, washed 4× and blocked for 1 h at 37° C. in 2% BSA containing blocking buffer. Refolded HLA-A*02:01/MLA-001 monomers served as standards, covering the range of 15-500 ng/ml. Peptide-MHC monomers of the UV-exchange reaction were diluted 100 fold in blocking buffer. Samples were incubated for 1 h at 37° C., washed four times, incubated with 2 ug/ml HRP conjugated anti-β2m for 1 h at 37° C., washed again and detected with TMB solution that is stopped with […]. Absorption was measured at 450 nm. Candidate peptides that show a high exchange yield (preferably higher than 50%, most preferred higher than 75%) are generally preferred for a generation and production of antibodies or fragments thereof, and/or T cell receptors or fragments thereof, as they show sufficient avidity to the MHC molecules and prevent dissociation of the MHC complexes.
For the molecule LLWDAPAKC, the peptide exchange yield lay within 50 to 75%.
As to RLHDENILL, the peptide exchange yield was 50 to 75%.
Molecule SLADLSLLL came in with a peptide exchange yield of 50 to 75%.
For QLGPVPVTI, the peptide exchange yield lay within 50 to 75%.
As for GLLSALENV, the peptide exchange yield was 50 to 75%.
With QLYGSAITL, the peptide exchange yield was 50 to 75%.
In turn, SLYPHFTLL returned a peptide exchange yield of 50 to 75%.
Molecule KLVELEHTL (also called CT83-001) registered a peptide exchange yield of 50 to 75%.
Regarding ILAQDVAQL, the peptide exchange yield was in the range of 50 to 75%.
For AQLEGKLVSI, the peptide exchange yield was in the range of 50 to 75%.
For the molecule GLLGNLLTSL, the peptide exchange yield fell in the range of 50 to 75%.
On to FLISQTPLL, for which the peptide exchange yield was 50 to 75%.
For ALEEKLENV, the peptide exchange yield is 50 to 75%.
In turn, IILENIQSL registered a peptide exchange yield of 50 to 75%.
As to MLWESIMRV, the peptide exchange yield lay in the range of 50 to 75%.
Take ALLNNVIEV: the peptide exchange yield was in the range of 50 to 75%.
RLLDPKTIFL displayed a peptide exchange yield of 50 to 75%.
Take TLQEWLTEV: the peptide exchange yield was 50 to 75%.
Same read-out and setting: the value for FLDSQITTV was 50 to 75%; that for SIIDTELKV was 50 to 75%; that for YLILSSHQL was 50 to 75%.
VLLDMVHSL displayed a peptide exchange yield of 50 to 75%.
In turn, QLREAFEQL displayed a peptide exchange yield of 50 to 75%.
In the case of YTFSGDVQL (also called MMP1-003), the peptide exchange yield was 50 to 75%.
In the case of AALEVLAEV, the peptide exchange yield lay within 50 to 75%.
In turn, YLDPLWHQL gave a peptide exchange yield of 50 to 75%.
